# Source: article PMC7383220 (BioFactors (Oxford, England), 2018)
# T1: UGT1A1 (Homo sapiens, UniProt P22309)
# T1 sequence (P22309 26-533): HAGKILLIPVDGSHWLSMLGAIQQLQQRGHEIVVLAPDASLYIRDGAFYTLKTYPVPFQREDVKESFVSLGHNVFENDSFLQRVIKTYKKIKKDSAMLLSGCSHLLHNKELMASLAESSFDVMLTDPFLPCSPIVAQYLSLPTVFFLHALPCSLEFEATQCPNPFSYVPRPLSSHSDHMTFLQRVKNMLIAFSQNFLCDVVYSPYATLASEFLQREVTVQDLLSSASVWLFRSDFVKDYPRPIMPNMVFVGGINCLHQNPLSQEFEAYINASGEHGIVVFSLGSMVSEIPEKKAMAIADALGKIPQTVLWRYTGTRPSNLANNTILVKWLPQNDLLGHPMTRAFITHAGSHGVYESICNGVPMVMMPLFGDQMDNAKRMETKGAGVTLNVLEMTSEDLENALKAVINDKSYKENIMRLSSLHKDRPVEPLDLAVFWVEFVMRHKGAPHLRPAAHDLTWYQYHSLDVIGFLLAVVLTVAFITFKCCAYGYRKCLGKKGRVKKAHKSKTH
# Tests used:
# UGT1A1 = molecular target: T1, UGT1A1; assay type: biochemical; settings: nilotinib 10 μM, protopanaxatriol 500 μM, glycyrrhetinic acid 20 μM
# [1] = substrate: O=C(/C=C/c1ccc(O)cc1)CC(=O)/C=C/c1ccc(O)cc1; test: cells, lysate or membranes named; settings: pH 7.4, 37.0 °C
# [2] = other: UGT1A1 enzyme supplemented with UDPGA
# [3] = other: HeLa1A1 cell lysate supplemented with UDPGA
molecule,measurement,setting,value
CC(C)=CCC[C@](C)(O)[C@H]1CC[C@]2(C)[C@@H]1[C@H](O)C[C@@H]1[C@@]3(C)CC[C@H](O)C(C)(C)[C@@H]3[C@@H](O)C[C@]12C [protopanaxatriol],Effect of UGT1A1 inhibitors on rates of BDMC-O-glucuronidation,UGT1A1,altered
CC1(C)[C@@H](O)CC[C@]2(C)[C@H]3C(=O)C=C4[C@@H]5C[C@@](C)(C(=O)O)CC[C@]5(C)CC[C@@]4(C)[C@]3(C)CC[C@@H]12 [glycyrrhetinic acid],Effect of UGT1A1 inhibitors on rates of BDMC-O-glucuronidation,UGT1A1,altered
Cc1cn(-c2cc(NC(=O)c3ccc(C)c(Nc4nccc(-c5cccnc5)n4)c3)cc(C(F)(F)F)c2)cn1 [nilotinib],Effect of UGT1A1 inhibitors on rates of BDMC-O-glucuronidation,UGT1A1,altered
UGT1A1 (Homo sapiens) (protein) HAGKILLIPVDGSHWLSMLGAIQQLQQRGHEIVVLAPDASLYIRDGAFYTLKTYPVPFQREDVKESFVSLGHNVFENDSFLQRVIKTYKKIKKDSAMLLSGCSHLLHNKELMASLAESSFDVMLTDPFLPCSPIVAQYLSLPTVFFLHALPCSLEFEATQCPNPFSYVPRPLSSHSDHMTFLQRVKNMLIAFSQNFLCDVVYSPYATLASEFLQREVTVQDLLSSASVWLFRSDFVKDYPRPIMPNMVFVGGINCLHQNPLSQEFEAYINASGEHGIVVFSLGSMVSEIPEKKAMAIADALGKIPQTVLWRYTGTRPSNLANNTILVKWLPQNDLLGHPMTRAFITHAGSHGVYESICNGVPMVMMPLFGDQMDNAKRMETKGAGVTLNVLEMTSEDLENALKAVINDKSYKENIMRLSSLHKDRPVEPLDLAVFWVEFVMRHKGAPHLRPAAHDLTWYQYHSLDVIGFLLAVVLTVAFITFKCCAYGYRKCLGKKGRVKKAHKSKTH,Km,[1]; [2],5.99 ± 0.83 µM
same,Vmax,[1]; [2],0.00141 µmol/min/mg
same,Vmax/Km,[1]; [2],235 µL/min/mg
HeLa1A1 cell lysate (Homo sapiens) (protein) HAGKILLIPVDGSHWLSMLGAIQQLQQRGHEIVVLAPDASLYIRDGAFYTLKTYPVPFQREDVKESFVSLGHNVFENDSFLQRVIKTYKKIKKDSAMLLSGCSHLLHNKELMASLAESSFDVMLTDPFLPCSPIVAQYLSLPTVFFLHALPCSLEFEATQCPNPFSYVPRPLSSHSDHMTFLQRVKNMLIAFSQNFLCDVVYSPYATLASEFLQREVTVQDLLSSASVWLFRSDFVKDYPRPIMPNMVFVGGINCLHQNPLSQEFEAYINASGEHGIVVFSLGSMVSEIPEKKAMAIADALGKIPQTVLWRYTGTRPSNLANNTILVKWLPQNDLLGHPMTRAFITHAGSHGVYESICNGVPMVMMPLFGDQMDNAKRMETKGAGVTLNVLEMTSEDLENALKAVINDKSYKENIMRLSSLHKDRPVEPLDLAVFWVEFVMRHKGAPHLRPAAHDLTWYQYHSLDVIGFLLAVVLTVAFITFKCCAYGYRKCLGKKGRVKKAHKSKTH,Km,[1]; [3],7.33 ± 0.83 µM
same,Vmax,[1]; [3],0.0012 ± 4.99e-05 µmol/min/mg
same,Vmax/Km,[1]; [3],164 ± 19.8 µL/min/mg
